The values that follow come from US20250034601.

Data set [1] addresses T1, MBP-tagged AtBSβ (beta subunit of Arabidopsis thaliana benzaldehyde synthase).
T1 chain: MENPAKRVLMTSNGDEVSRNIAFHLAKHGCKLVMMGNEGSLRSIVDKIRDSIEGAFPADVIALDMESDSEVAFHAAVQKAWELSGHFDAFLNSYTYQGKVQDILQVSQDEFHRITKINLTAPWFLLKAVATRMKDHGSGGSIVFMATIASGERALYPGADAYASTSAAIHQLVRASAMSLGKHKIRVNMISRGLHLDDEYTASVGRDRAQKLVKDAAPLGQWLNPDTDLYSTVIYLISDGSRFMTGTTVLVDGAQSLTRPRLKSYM

In data set [2] the target is T2, MBP-tagged PdBSβ (beta subunit of Prunus dulcis benzaldehyde synthase).
T2 chain: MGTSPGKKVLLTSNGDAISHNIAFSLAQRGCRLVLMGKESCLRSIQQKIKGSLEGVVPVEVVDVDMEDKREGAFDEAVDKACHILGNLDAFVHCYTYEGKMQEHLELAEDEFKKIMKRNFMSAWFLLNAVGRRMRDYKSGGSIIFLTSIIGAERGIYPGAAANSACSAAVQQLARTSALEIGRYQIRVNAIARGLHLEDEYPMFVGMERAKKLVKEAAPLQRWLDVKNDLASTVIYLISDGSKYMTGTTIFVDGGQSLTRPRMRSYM

Data set [3] deals with T3, MBP-tagged PhBSβ (beta subunit of Petunia hybrida benzaldehyde synthase).
T3 chain: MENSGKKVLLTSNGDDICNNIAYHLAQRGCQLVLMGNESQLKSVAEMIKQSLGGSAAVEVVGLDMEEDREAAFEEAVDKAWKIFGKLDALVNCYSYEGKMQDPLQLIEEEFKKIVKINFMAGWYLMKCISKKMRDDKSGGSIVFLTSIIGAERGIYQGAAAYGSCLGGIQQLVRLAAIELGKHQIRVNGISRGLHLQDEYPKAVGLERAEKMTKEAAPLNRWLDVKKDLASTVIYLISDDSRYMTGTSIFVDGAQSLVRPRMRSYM

Data set [4] deals with T4, MBP-tagged SlBSβ (beta subunit of Solanum lycopersicum benzaldehyde synthase).
T4 chain: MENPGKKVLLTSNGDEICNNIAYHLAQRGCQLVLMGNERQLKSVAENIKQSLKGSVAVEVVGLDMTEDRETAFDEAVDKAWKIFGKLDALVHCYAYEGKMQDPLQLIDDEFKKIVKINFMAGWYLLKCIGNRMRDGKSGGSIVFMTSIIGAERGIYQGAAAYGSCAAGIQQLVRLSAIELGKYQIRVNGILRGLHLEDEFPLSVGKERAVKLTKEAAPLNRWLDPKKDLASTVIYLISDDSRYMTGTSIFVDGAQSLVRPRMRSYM

B1: MBP-PhBSα (maltose binding protein-tagged alpha subunit of Petunia hybrida benzaldehyde synthase) (protein)
chain: MEKQTQARFLEPWRDLKGKVVMVTGASSGIGLDLCLDLAKAGCKIIAAARRVDRLKSLCNQINAAADDDDDNNRAVAVELDVSANGDAIEAAVKEAWGAFGRIDALVNNAGVRGTVHSPLELTEEECHNTFRTNLTGTWLVSKYVCKFMRDAKQGGSVINISSIAGLNRGQLPGGLAYVSSKGAVNMVTKVMALELGVDKIRVNSISPGLFKSEITQGLIQKEWLNNVAMRTIPLRTHGNSADPALTSVVRYLIHDSSEYVSGNLFIVDAGATLPGVPIFSSL
With B1, the “BS activity of cross-species heterodimers (subunits mixed 1:1)” value in data set [1] was “only the AtBSβ subunit was not able to produce active enzymes upon interaction with PhBSα and SlBSα”; in data set [2], “interactions of PdBSβ and SlBSβ with PhBSα resulted in hybrid enzymes with activities almost identical to that of PhBS”; in data set [4], “interactions of PdBSβ and SlBSβ with PhBSα resulted in hybrid enzymes with activities almost identical to that of PhBS”. Besides, the “benzaldehyde synthase activity (benzoyl-CoA + NADPH, GC-MS)” value in data set [3] was “Neither of the two purified recombinant proteins displayed benzaldehyde synthase activity when tested alone ... however, benzaldehyde was efficiently formed when the two subunit proteins were mixed in equal amounts (e.g., a 1:1 ratio)”.

B2: MBP-tagged SlBSα (alpha subunit of Solanum lycopersicum benzaldehyde synthase) (protein)
chain: METHAKSVRQLEPWGELAGKVVMVTGASSGIGRDFCSDLSKAGCRIIAAARRIDRLQSLCDEINSNSSNGSTKSSQDLRAVAIELDVSANGSAIEAAVQKAWDAFGRIDGLVNNAGFRGSVLSPLELSEEEWEKIHKTNLRGAWLVTKYVCMHMRAANQGGSIINISSIAGINRGQLPGSLAYTSSKEALNSITKVLALELGPYKIRVNSISPGLFKSEITEGLIQKDWIKNIELRTIPLRTHGTSHPALTSVVRYLIHDSSEYVSGNMFIVDAGATLPGVPIFSSL
Consider B2, for which the “BS activity of cross-species heterodimers (subunits mixed 1:1)” value in data set [1] was “only the AtBSβ subunit was not able to produce active enzymes upon interaction with PhBSα and SlBSα”. Moreover, the “BS activity of hybrid enzyme relative to SlBS” value was “activities of SlBSα-PhBSβ and SlBSα-PdBSβ were 6.5-fold lower and 2.7-fold higher, respectively, as compared with SlBS” in data set [2]; “activities of SlBSα-PhBSβ and SlBSα-PdBSβ were 6.5-fold lower and 2.7-fold higher, respectively, as compared with SlBS” in data set [3]. The “benzaldehyde synthase activity (GC-MS)” value in data set [4] is “benzaldehyde synthases from all three organisms (i.e., Solanum lycopersicum, Prunus dulcis, and Arabidopsis thaliana) showed activity only when two purified recombinant subunits were combined”.

B3: MBP-tagged AtBSα (alpha subunit of Arabidopsis thaliana benzaldehyde synthase) (protein)
chain: MANQVADHLEPWRHLHGKVVMVTGASSGLGREFCLDLAKAGCRIVAAARRIDRLQSVCDEINQLTVTAPSSSSSSSSVNGPGSSRAVAVELDISADGPAIEKSVNKAWDAFGRIDALVNNAGVRGNVSSSLELSEEEWNNVFKTNLTGSWLVSKYVSIRMRDADQGGSIINVSSIAGLHRGYLPGAVAYNCSKAGVNTLAKVMAMELGVHKIRVNAISPGLFRSEITEGLMKKDWLHNVAMKTVPLRTFGTSDPALTSLVRYLVHDSSEYVSGNVYIVDAGATLPGVPIFSAL
Turning to B3, in data set [1], the “benzaldehyde synthase activity (GC-MS)” value is “benzaldehyde synthases from all three organisms (i.e., Solanum lycopersicum, Prunus dulcis, and Arabidopsis thaliana) showed activity only when two purified recombinant subunits were combined”. In data set [2], the “BS activity of hybrid enzyme” value is recorded as “the AtBSα-PdBSβ hybrid was as active as PdBS”. Besides, the “BS activity of hybrid enzyme relative to AtBS” value in data set [2] was “increasing activity from 4.6- to 7.8-fold in AtBSα-SlBSβ and AtBSα-PdBSβ, respectively, relative to AtBS”; in data set [3], “interactions of the three tested β subunits with AtBSα promoted activities of hybrid proteins”; in data set [4], “increasing activity from 4.6- to 7.8-fold in AtBSα-SlBSβ and AtBSα-PdBSβ, respectively, relative to AtBS”.

B4: MBP-tagged PdBSα (alpha subunit of Prunus dulcis benzaldehyde synthase) (protein)
chain: B3 chain
Regarding B4, in data set [2], the “benzaldehyde synthase activity (GC-MS)” value was “benzaldehyde synthases from all three organisms (i.e., Solanum lycopersicum, Prunus dulcis, and Arabidopsis thaliana) showed activity only when two purified recombinant subunits were combined”. For the same protein, the “BS activity of hybrid enzyme relative to PdBS” value in data set [3] and in data set [4] was “the activities of hybrid enzymes comprising PdBSα were up to 2.5-fold lower than that of PdBS enzyme” each time.
